The assay concerns the target Rabies G-Trimer (CTN-1 Strain) (ectodomain of rabies CTN-1 strain G protein fused in frame to Trimer-Tag) (Rabies virus CTN-1 strain).

B1: NGFR-Fc (nerve growth factor receptor NGFR (p75) fused to Fc) (Fc fusion)
chain: KEACPTGLYTHSGECCKACNLGEGVAQPCGANQTVCEPCLDSVTFSDVVSATEPCKPCTECVGLQSMSAPCVEADDAVCRCAYGYYQDETTGRCEACRVCEAGSGLVFSCQDKQNTVCEECPDGTYSDEANHVDPCLPCTVCEDTERQLRECTRWADAECEEIPGRWITRSTPPEGSDSTAPSTQEPEAPPEQDLIASTVAGVVTTVMGSSQPVVTRGTTDN
B1 yielded a Kd of 2.92 nM, a koff of 2.39e-05 s⁻¹ and a kon of 8170 M⁻¹ s⁻¹.

The values are drawn from patent publication US20230218739A1 (SICHUAN CLOVER BIOPHARMACEUTICALS, published 2023).
